Data published in the DeepSol protein solubility set.

Assay: soluble on expression in E. coli; label from the status in PepcDB or PDB records

Row | Sequence | soluble on expression in E. coli
1 | MSLGLDNLYRVLDANVNRTSEGLRVLEDLARFCYNDRLLSKRIKELRHSVRKNIAGLVPNLISSRDSVNDVGLKTSMEMDIDRKASLLDLARANFKRVQEALRTVEESLKVLNENDLSKFYESCRFETYSIEKEYFKVLTFENKKGRLNEIITGLYCITSEEHSKGRSNIEVVEKMIKAGVKIIQYREKKKSLLEKYNECKKIREMTLDSGVTFIVNDNIDIAMMVKADGVHIGQDDLPIEKVRELVGDEMIIGISTHSPTQAEDAVRRGADYIGVGPLYRTYTKEDVCEPVGLEYLDYVVKNINIPYVAIGGIKEHNMDEVLARGARCIAMVTEIVGADDIEEKISKVKSKFSRGEGHHHHHH | soluble
2 | MGSSHHHHHHGMASMTGGQQMGRDLYDDDDKDPSSRSMAKLTKPKTEGILHKGQSLYEYLDARVLTSKPFGAAGDATTDDTEVIAASLNSQKAVTISDGVFSSSGINSNYCNLDGRGSGVLSHRSSTGNYLVFNNPRTGRLSNITVESNKATDTTQGQQVSLAGGSDVTVSDVNFSNVKGTGFSLIAYPNDAPPDGLMIKGIRGSYSGYATNKAAGCVLADSSVNSLIDNVIAKNYPQFGAVELKGTASYNIVSNVIGADCQHVTYNGTEGPIAPSNNLIKGVMANNPKYAAVVAGKGSTNLISDVLVDYSTSDARQAHGVTVEGSDNVINNVLMSGCDGTNSLGQRQTATIARFIGTANNNYASVFPSYSATGVITFESGSTRNFVEVKHPGRRNDLLSSASTIDGAATIDGTSNSNVVHAPALGQYIGSMSGRFEWRIKSMSLPSGVLTSADKYRMLGDGAVSLAVGGGTSSQVRLFTSDGTSRTVSLTNGNVRLSTSSTGYLQLGADAMTPDSTGTYALGSASRAWSGGFTQAAFTVTS | soluble
3 | MGSDKIHHHHHHMIPKNIHLIFLRKDEPFPELFEKCKQEIQVNHPDWNIRLYNKDDAQDILNQDLPEYIEAYNAFYHNVQKADFLRLALVYLYGGFYMDLDMLSLKPLDELRKYNLVLGEEKIVCQAEQEALNLRYRLRIANYMFGGIPKHPFLHRIMDEMAERATIILKSQQEILDITGPGLLTDTYWDNYGMYTDITLLRNTDKRCRQPYHNEISCHFGDYAAHLHAGTWRTGI | not soluble
4 | MGSDKIHHHHHHMLHQLTVLFKDHLSTDPTVYCTDKYTVYQLADGLRFGIENTILTPRELDLLNLLVERVVTSESDQIVTWRRRLEQPSSEEAHPFRMIHFLFEQLDVRTGEDLQQLLTSFFHPSSWIIPLTSNRLVVIEREDSVSENDLHDFFTALQSDFLMDGKVLIGQQRQSGDLAAQFRLEQAALRELPLLHIERFLPALMRLTLLSNEVRDDLIERFITPLERESRETIDAFCRANLNVSLTAKHLFLHRNSLQYRLDRLTEQTEIDIRSFEGAMFLYTLLLVA | not soluble
5 | MFLLKQIGVIRSPFKSPSECPFQGRFSQERFTIELFPEYEEGLKDIETCTHLIVLYWLDRANRDRLIAIPPFDKREHGVFATRSPHRPNPIGFSVVKLLEVRGRELVVEGLDAVDGTPVVDIKPYSSKIDCVENARIGWFEEV | soluble
6 | MRIHSPYPASWALAQRIGYLYSEGEIIYLADTPFERLLDIQRQVGQCQTMTSLSQADFEARLEAVFHQNTGESQQIAQDIDQSVDLLSLSEEMPANEDLLNEDSAAPVIRLINAILSEAIKETASDIHIETYEKTMSIRFRIDGVLRTILQPNKKLAALLISRIKVMARLDIAEKRIPQDGRISLRIGRRNIDVRVSTLPSIYGERAVLRLLDKNSLQLSLNNLGMTAADKQDLENLIQLPHGIILVTGPTGSGKSTTLYAILSALNTPGRNILTVEDPVEYELEGIGQTQVNTRVDMSFARGLRAILRQDPDVVMVGEIRDTETAQIAVQASLTGHLVLSTLHTNSASGAVTRLRDMGVESFLLSSSLAGIIAQRLVRRLCPQCRQFTPVSPQQAQMFKYHQLAVTTIGTPVGCPHCHQSGYQGRMAIHEMMVVTPELRAAIHENVDEQALERLVRQQHKALIKNGLQKVISGDTSWDEVMRVASATLESEA | not soluble
7 | AFYYLSNFERALAWLAERYDDVLDAGEHAFVGAFGALPRASRALLVRMLMRKGPMFRASKLAYDEIGCPLAAAAPLVALGWIDPEPPLSLDALFALATKPELRDAFPDAPASGAVRKADWLDALRARHDGERPWAQWLPSIDDRVLRVTAAVDALCSRLRLMFFGNLHQDWSEFVLADLGLLQYETVAFAPSSRAFQRRDDVDAYLRLHACRELLEVWPADAPLAPLVEAAAAVDCGNAWLAMRRAKLTFSIGQACERRADWDGALAAYASSAWPGSRQRRVRVLERCERFDTALALADEAARAPENEAEAQQIARMLPRLRRRVGLPAGRAARAREIPRDSLELAHPGVPYPVEYVARDHLSRADAPVFYVENALINSLFGLLCWEPVFAAVPGAFFHPFQRGPADLHAPDFRARRAAQFDACLAQLDGTQYRDTIRRHYARKRGVQSPFVFWGALDETLLEHALACLPAEHLRLWFERLLDDVRGNRSGLPDLVRFWPAERRYELIEVKGPGDRLQDNQIRWLDYCVRHRMPVRVIDVRWSGDAQASSQDEGAL | not soluble
8 | MSLATLLHIDSSVFPSAASASRAVAETFRTAWQEQHPDGTVIYRDLSANPVPHITADAHTAGFADPATHTPGQAAAFAEREKLIAELEQADAVLIGAPMYNYAIPSTLKAWLDNVILMGRTAANENSKVTGTPVTVIASRGGSYAPGTPREPYEYVQNYLKAVLSDALGLELEFIVPELTMAAHNPAMSELVPLAEASRAKAHEDAAAKAKELADRFAAEGHHHHHH | soluble
9 | MGSDKIHHHHHHMKNRIIEKIENALQTLKNGGLIIITDDENRESEGDMVGLAEYVTPKAVNTMVTNARGLLCVPMSAEIAQKLGLSPMVTNAEDAFGTAFTISTDAKTTKTGISAFDRAKTIQKLADPQAKFSEFYHPGHVFPLIAEEGGVLARGGHTEAAVDLAKLAGVRPVAYITEVLKKDGTMARRNTLKSLAEGMQMPLLTIEEIKIYRYMKDAGIVKSVAKVHLPTKYGEFEMEAFDTGAGQEPTLLLTKGSLSEVQPLLLRIHSECLTGDIFGSKRCDCGEQLERSLKEIQSRGRGALLYLRQEGRGIGLANKLKAYELQEQGMDTVEANLKLGFQADERHYGVAAAILRKKGITKVNLLTNNPDKIKQLETLGIKVEERVTIQIPARPENRSYLKVKKEKMHHLLKGMD | not soluble
10 | MGSDKIHHHHHHMNIKIAKNAGFCFGVKRAMKMAWDEVEKNDSGIYALGPLIHNKQAVAKYEEKGLKTVNEIDTIPNHENMIIRSHGVPENIYKEAKDKKLKIVDTTCPFVKKIHTVVSEYHNKGYEIIVIGDMKHPEVIGINGWCENSAIIIKTLEQMENMEFDNSKRYCLVAQTTINPELYISIVNKLSDKLEEIVFNDTICSATKTRQESAKELAKEVDCMIVIGGKHSSNTQKLVKVCEDLVPTFAIETKDELDVNTLKKYKNLGITAGASTPNWIIEEVVTFLENL | not soluble
11 | MSLTKKELPLDGLIPYCEQCGDFRFPVFSVAVSMIVMNEGGDQVLLIKQYWKDSYILVAGYVNKGENAEDSCRRELMEELHLTAKSLHFNRSQYFAPSNTLMLNYTVTVDQAEKVSPNEEIDAWNWLSIDEARRQIRPNSLARTFLLEYLNKCKLHREGHHHHHH | soluble
12 | MSLQMKPEDILENIFYFRVCSYTEQIALVNHLEKFISENKDVKVVIVDSITFHFRQDYDDLAQRTRVLSEMALKFMKLAKKFSLAVVLLNQVTTKFSEGSFQLALALGDSWSHSCTNRVILYWNGDERYAYIDKSPSLPSASASYTVTSRGLRNSSEGHHHHHH | not soluble
13 | METHEKIRLMRELNKWSQEDMAEKLAMSAGGYAKIERGETQLNIPRLEQLAQIFKIDMWDLLKSGGGGMVFQINEGDSGGDIALYASGDVSMKIEFLKMELKHCKEMLEQKDKEIELLRKLTETV | not soluble
14 | MGSDKIHHHHHHMAEGSSSSSLTRLMSILDIFTETRPEWSSDDMMTELGYPRPTLYRYLKVLTDAGMLASNGHGIYTLGPKVVEMDHLLRLSDRLVAIGRPVVAQLTEQYACTAFLVRWYRNRLLCMHSETSLEAPLSSYPRGRVMPMNRGAIARTILAHLQSRKARKIIESFAPEGPEDARKAYIAEQAAALRSVRRNGYAIAFGEVTPGVVGVASPIFDEAAEPAGALCMTMRQEDCPHELRTLITQAVPAAANSITVTLRQSRHTGTDHTHLPLQEEVKDR | not soluble
